Patent publication US20060115897A1

Molecular target: C3b (UniProt P01024)
Experiment: cell-based or functional assay

C3b, sequence (P01024 749-1663 limits assumed, chain 1 of 2): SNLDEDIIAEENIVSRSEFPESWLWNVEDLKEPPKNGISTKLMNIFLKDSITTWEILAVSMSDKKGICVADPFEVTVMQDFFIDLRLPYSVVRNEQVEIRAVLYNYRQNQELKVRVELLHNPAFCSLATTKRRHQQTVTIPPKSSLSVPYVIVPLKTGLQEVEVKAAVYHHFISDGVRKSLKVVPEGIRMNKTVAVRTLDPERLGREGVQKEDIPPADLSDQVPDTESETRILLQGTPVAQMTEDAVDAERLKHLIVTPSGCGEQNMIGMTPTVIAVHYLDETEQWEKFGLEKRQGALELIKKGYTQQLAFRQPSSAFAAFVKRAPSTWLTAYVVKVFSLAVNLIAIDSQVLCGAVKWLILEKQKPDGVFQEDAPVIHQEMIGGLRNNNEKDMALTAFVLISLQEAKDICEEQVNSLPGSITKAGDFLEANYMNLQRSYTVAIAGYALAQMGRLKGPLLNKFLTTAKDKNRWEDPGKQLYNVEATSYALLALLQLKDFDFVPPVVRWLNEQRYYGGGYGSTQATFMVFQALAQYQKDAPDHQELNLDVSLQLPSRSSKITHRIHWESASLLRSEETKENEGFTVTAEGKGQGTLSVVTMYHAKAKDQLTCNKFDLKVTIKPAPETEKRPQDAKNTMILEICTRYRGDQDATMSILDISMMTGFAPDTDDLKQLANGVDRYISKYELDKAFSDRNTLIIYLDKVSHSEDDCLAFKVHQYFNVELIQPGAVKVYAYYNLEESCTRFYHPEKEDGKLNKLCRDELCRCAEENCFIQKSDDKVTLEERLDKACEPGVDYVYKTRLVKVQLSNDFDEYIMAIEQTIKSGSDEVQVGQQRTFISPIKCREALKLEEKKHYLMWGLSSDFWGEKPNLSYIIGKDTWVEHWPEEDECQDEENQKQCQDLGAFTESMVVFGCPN
C3b, sequence (P01024 23-667 limits assumed, chain 2 of 2): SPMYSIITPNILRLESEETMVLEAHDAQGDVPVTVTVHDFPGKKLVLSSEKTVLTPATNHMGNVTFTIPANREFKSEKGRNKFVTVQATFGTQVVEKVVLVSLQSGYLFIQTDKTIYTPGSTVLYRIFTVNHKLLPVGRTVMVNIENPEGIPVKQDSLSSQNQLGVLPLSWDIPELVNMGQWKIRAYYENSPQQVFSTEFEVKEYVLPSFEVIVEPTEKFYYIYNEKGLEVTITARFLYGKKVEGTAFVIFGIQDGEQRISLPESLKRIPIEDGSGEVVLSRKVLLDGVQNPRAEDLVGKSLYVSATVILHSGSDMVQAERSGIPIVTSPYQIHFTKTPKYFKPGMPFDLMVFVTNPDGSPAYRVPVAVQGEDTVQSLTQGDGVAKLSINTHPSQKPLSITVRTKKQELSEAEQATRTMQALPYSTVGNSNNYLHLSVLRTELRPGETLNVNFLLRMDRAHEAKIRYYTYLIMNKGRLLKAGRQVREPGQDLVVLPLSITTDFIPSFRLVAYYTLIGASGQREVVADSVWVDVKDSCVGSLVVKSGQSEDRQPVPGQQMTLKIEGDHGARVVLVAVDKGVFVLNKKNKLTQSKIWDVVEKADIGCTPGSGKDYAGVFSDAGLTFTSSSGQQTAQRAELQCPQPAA

## soluble human CR1 (from UniProt P17927 42-1971) (receptor)
  speed as cofactor in the degradation of C3b, against SPICEhis: > 2 fold
